These are literature values, as cited in article PMC12188480.

For the data set, the target named is c-MET (Homo sapiens) (UniProt P08581).
c-MET (Homo sapiens), sequence (P08581 25-932): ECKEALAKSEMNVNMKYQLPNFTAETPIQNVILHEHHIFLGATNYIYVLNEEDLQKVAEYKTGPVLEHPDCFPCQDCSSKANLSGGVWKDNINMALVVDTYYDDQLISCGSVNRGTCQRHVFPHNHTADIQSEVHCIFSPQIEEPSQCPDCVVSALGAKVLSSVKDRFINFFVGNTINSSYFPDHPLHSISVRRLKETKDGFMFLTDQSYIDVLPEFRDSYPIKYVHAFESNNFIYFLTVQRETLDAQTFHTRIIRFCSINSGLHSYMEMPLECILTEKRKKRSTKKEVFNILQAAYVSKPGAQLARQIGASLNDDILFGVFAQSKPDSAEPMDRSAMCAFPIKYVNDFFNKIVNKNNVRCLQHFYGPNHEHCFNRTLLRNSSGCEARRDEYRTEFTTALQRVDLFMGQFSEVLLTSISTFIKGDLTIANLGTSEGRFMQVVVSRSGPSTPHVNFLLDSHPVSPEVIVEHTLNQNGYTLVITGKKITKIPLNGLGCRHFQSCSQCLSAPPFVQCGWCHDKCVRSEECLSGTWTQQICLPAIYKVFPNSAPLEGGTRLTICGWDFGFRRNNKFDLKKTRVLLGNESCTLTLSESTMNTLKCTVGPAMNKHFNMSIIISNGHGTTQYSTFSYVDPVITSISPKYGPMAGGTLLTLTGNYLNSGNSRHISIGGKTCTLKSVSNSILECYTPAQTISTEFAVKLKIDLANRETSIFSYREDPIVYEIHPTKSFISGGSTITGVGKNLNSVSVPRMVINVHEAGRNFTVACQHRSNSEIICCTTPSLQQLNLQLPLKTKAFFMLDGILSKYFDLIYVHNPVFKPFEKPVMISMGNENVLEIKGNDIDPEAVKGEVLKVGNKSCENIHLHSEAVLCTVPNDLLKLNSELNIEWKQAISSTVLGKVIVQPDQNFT

Regarding onartuzumab, the Kd (usually the concentration at which binding is half-saturated) is 1.2 nM.
